Measured values from patent US20150079112A1 (SAMSUNG ELECTRONICS, published 2015).

Assays:
[1] = target: T1, Ang2 protein (R&D systems) (human, UniProt O15123 19-496); assay: cell-based or functional assay
T1 sequence: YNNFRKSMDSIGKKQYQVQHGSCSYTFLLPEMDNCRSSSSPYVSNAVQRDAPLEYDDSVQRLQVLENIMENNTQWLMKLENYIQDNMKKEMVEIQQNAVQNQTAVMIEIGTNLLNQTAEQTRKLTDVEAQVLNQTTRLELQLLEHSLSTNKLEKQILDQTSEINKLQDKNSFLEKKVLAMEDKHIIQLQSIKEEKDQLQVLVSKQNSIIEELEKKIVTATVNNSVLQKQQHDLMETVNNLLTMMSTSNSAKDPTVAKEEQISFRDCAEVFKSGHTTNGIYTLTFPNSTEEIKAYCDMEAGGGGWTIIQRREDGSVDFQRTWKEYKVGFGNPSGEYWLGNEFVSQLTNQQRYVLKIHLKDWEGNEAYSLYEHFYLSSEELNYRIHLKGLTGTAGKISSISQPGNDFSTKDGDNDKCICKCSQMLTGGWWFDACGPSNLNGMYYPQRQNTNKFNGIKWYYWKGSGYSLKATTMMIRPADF

[2] = target: T2, mutant Ang2 protein, F469 substituted with alanine, FLAG-tagged at its N-terminal (human, UniProt O15123 19-496, limits assumed); assay: ELISA, coated antibody 1000 nM, 250 ng FLAG-tagged mutant Ang2, anti-FLAG-HRP, OD450
T2 sequence: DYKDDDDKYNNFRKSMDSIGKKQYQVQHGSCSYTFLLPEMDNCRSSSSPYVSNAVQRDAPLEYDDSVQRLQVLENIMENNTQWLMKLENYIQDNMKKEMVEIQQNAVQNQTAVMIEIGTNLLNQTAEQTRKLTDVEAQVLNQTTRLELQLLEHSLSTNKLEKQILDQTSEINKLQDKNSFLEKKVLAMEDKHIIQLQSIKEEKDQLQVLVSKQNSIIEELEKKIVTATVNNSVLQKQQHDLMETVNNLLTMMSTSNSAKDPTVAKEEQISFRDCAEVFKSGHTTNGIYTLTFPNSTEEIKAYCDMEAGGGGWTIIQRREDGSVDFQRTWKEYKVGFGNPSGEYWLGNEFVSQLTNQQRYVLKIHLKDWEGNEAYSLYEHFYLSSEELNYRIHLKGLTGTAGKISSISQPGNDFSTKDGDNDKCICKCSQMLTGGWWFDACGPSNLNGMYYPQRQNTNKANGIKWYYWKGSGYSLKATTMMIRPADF
Method in brief: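 Antibody coated at 1000 nM and BSA-blocked; 250 ng N-terminally FLAG-tagged alanine-mutant Ang2 bound 2 h at room temperature, detected with HRP-anti-FLAG (1 h) and TMB, OD450. Binding expressed as % of that to native Ang2.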

hTie2-Fc (R&D Systems) = target: T3, hTie2-Fc (R&D Systems) (human, UniProt Q02763 23-745); assay: ELISA: coated Tie2-Fc, 10D6 2 µg/ml without Ang2, detected with anti-mouse IgG-HRP (OD450)
T3 construct: also called hTie-2/Fc fusion protein; not shown: Fc of human IgG1
Description: A 96-well MaxiSorp™ flat-bottom plate (Nunc) was coated with 4 ug/ml of Tie2-Fc (R&D systems) or BSA (Sigma). Then, the plate was washed five times with 0.05% (v/v) Tween-20-containing PBS (Phosphate Buffer Saline) and blocked with 1% (v/v) BSA (Bovine serum albumin; Sigma)-containing PBS at a room temperature for 2 hours. […] After that, an anti-mouse IgG antibody (Sigma) conjugated with HRP diluted in 1% (v/v) BSA-containing PBS at a ratio of 1:5,000 (v/v) was added in an amount of 100 ul to each well to react at a room temperature for 1 hour and then, the plate was washed five times with PBST. Lastly, 100 ul (microliter) of TMB substrate (Cell Signaling) was added to each well of the plate to induce color development for 3 min. and then, the reaction was ceased by the addition of 100 ul of Stop solution (Cell Signaling) and OD450 values were measured on a plate reader (Molecular Devices).

BSA = target: T4, BSA (bovine, UniProt P02769); assay: ELISA: coated BSA, 10D6 2 µg/ml with or without FLAG-Ang2, detected with anti-mouse IgG-HRP (OD450)
T4 construct: also called Bovine serum albumin; BSA (Sigma)
Description: A 96-well MaxiSorp™ flat-bottom plate (Nunc) was coated with 4 ug/ml of Tie2-Fc (R&D systems) or BSA (Sigma). Then, the plate was washed five times with 0.05% (v/v) Tween-20-containing PBS (Phosphate Buffer Saline) and blocked with 1% (v/v) BSA (Bovine serum albumin; Sigma)-containing PBS at a room temperature for 2 hours. 0.25 ug/ml of Ang2 and 2 ug/ml of antibody 10D6 were added to each well of the plate, which was allowed to react at a room temperature for 2 hours and then washed five times with PBST. After that, an anti-mouse IgG antibody (Sigma) conjugated with HRP diluted in 1% (v/v) BSA-containing PBS at a ratio of 1:5,000 (v/v) was added in an amount of 100 ul to each well to react at a room temperature for 1 hour and then, the plate was washed five times with PBST. Lastly, 100 ul (microliter) of TMB substrate (Cell Signaling) was added to each well of the plate to induce color development for 3 min. and then, the reaction was ceased by the addition of 100 ul of Stop solution (Cell Signaling) and OD450 values were measured on a plate reader (Molecular Devices).

T4 sequence (P02769 25-607 limits assumed): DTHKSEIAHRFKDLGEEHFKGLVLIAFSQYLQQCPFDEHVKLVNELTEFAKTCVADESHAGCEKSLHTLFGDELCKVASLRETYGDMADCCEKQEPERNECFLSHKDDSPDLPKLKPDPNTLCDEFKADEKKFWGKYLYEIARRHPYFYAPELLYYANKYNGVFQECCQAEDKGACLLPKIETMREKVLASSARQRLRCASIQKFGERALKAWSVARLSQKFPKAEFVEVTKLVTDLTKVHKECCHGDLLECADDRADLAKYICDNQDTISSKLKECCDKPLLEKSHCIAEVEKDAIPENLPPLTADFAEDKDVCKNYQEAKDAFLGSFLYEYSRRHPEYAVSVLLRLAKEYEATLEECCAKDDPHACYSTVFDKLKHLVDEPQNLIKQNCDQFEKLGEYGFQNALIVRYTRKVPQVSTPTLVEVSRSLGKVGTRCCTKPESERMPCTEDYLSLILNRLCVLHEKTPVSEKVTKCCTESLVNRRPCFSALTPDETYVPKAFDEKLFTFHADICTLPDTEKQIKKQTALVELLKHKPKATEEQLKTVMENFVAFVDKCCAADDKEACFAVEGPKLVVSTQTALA
T3 sequence (Q02763 23-745 limits assumed): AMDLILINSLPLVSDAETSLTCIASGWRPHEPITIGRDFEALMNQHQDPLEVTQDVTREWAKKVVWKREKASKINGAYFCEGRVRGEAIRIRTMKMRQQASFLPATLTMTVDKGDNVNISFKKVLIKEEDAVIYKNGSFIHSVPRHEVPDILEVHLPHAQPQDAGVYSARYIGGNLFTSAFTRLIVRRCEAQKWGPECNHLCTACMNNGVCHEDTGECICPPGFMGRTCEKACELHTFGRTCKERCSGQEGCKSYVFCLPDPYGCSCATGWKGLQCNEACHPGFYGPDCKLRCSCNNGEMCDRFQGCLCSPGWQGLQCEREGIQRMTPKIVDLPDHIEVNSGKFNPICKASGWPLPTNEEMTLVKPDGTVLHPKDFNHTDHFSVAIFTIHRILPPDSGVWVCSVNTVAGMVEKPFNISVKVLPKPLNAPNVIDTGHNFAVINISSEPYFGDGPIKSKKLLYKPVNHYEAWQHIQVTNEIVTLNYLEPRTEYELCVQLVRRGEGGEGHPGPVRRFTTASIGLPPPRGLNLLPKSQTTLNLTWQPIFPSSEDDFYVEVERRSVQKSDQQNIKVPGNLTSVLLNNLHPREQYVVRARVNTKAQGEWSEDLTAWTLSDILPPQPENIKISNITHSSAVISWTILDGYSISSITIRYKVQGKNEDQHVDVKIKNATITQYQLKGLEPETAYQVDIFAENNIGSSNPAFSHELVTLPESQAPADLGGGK

B1: SAIT-ANG2-AB-m10D6 (antibody, V domains shown)
VH: DVQLQESGPGLVKPSQSLSLTCTVTGYSITSDYAWNWIRQFPGNKLEWMGYINYSGNTDYNPSLKSRSSITRDTSKNQFFLQLNSVTTGDTATYYCARGNFEGAMDYWGQGTSVTVSS
VL: SIVMTQTPKFLLVSAGDRVTITCKASQSVSNDVAWYQQKPGQSPKLLIYYASNRYPGVPDRFTGSGYGTDFTFTISTVQAEDLAVYFCQQDYSSPWTFGGGTKLEIK
notes: also called antibody 10D6; anti-Ang2 antibody (10D6)
Question: How did the “Tie2 phosphorylation effect relative to control antibody RG” value [1] turn out when B1 was run?
Answer: The value was ~8.6 fold.

Question: And the “Tie2 phosphorylation level (pTyr/Tie2 ratio), HUVEC, 60 nM antibody with Ang2” value [1]?
Answer: Its value is 180%.

Question: What about the “binding affinity (%) with mutant Ang2 against the binding affinity with the native Ang2” value [2] of the same binder?
Answer: Its value is 109%.

Question: Does B1 bind (hTie2-Fc (R&D Systems))?
Answer: Result: no binding (tested: 2 µg/ml)

Question: Does B1 bind (BSA)?
Answer: Result: no binding (tested: 2 µg/ml)
